Measurements published in article PMC3365014, “Specific Recognition of p53 Tetramers by Peptides Derived from p53 Interacting Proteins” (PLoS ONE, 2012).

How the values were obtained:
[1] = molecular target: WS100B(61–75), fluorescein-labeled; experiment: fluorescence polarisation; fluorescence anisotropy at increasing NaCl; p53CTD titrated into 200 nM peptide; 10 mM sodium phosphate pH 7.2, 25°C; ln(Kd) against ln(NaCl activity) fit linearly and extrapolated to physiological ionic strength
[2] = molecular target: p53 monomer (Homo sapiens) (UniProt P04637); conditions: cited from earlier work

Question: With “p53 C-terminal domain (p53CTD, residues 293–393) (from UniProt P04637 293-393) (domain or fragment)” as the substance, how does the Estimated physiological Kd [1] read?
Answer: 19 µM

Question: For p53 monomer (from UniProt P04637), which Kd [2] is on record?
Answer: 1 nM
